# Measurements from patent US20240270857A1 (CHIA TAI TIANQING PHARMACEUTICAL GROUP, published 2024).
# T1: cynomolgus IL-36R overexpressed on 293T-CynoIL36R-NFκB cells (cynomolgus monkey)
# T1 construct: Entry includes the signal peptide; also called monkey IL-36R
# T1 chain: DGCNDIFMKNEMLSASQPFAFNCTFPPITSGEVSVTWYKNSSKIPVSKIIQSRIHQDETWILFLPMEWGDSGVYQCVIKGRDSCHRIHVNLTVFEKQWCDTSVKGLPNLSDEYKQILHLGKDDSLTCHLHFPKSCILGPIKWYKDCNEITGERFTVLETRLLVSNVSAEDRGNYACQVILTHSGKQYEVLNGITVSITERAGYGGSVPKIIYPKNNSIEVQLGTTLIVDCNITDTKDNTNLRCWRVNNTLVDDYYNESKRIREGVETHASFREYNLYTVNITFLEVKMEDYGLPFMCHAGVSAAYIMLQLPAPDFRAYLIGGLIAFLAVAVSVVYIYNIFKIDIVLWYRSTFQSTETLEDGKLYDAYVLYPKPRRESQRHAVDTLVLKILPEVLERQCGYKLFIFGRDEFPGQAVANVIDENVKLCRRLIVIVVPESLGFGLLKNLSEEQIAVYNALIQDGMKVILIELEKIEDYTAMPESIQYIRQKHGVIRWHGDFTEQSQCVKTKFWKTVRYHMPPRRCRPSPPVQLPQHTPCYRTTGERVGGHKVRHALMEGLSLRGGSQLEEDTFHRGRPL
# T2: Human IL-1Rrp2/IL-1R6 protein, His Tag (ACROBiosystems, IL2-H52H6) (human, UniProt Q9HB29 20-335)
# T2 construct: Bought protein; the soluble protein is likely only the extracellular part; also called hIL-36R; human IL36R antigen; not shown: His tag
# T2 sequence: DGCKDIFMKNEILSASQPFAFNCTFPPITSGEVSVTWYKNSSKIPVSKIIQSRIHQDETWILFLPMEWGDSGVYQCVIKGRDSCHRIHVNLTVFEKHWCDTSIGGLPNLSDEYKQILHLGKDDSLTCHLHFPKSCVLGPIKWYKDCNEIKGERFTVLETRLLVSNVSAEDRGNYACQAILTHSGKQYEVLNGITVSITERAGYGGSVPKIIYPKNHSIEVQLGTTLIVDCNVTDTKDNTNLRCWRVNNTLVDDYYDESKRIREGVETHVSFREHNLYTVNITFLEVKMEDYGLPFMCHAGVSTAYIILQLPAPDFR
# T3: CynoIL36R-ECD mFc recombinant protein (cynomolgus monkey)
# T3 construct: Made in ExpiCHO, purified on Protein A; also called cynomolgus IL-36R extracellular region with mouse antibody heavy chain Fc
# T3 chain: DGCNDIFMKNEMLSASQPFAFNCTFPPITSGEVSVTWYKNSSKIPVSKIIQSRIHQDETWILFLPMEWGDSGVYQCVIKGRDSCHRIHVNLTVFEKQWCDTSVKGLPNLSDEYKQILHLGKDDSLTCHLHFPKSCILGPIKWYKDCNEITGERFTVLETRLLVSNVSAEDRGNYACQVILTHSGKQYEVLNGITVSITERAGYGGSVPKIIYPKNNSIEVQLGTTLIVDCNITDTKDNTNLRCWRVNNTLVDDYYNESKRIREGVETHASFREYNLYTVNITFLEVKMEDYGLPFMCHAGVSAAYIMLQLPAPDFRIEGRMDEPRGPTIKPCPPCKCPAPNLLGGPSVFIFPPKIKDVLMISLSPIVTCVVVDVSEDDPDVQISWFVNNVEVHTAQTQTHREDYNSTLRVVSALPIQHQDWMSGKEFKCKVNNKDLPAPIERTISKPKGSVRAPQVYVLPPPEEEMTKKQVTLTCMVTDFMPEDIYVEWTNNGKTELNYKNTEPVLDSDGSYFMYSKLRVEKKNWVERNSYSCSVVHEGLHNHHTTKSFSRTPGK
# B1: hz84C4-1.1 (antibody, human IgG4 S228P, kappa, V domains shown)
# VH: QVQLVQSGAEVKKPGASVKVSCKASGYFFTSYWMNWVRQAPGQGLEWMGMIHPYDSETRYAQKFQGRVTMTVDKSTSTVYMELSSLRSEDTAVYYCASSTTAFAYWGQGTLVTVSS
# VL: DIQMTQSPSSLSASVGDRVTITCRASQDIGNALNWYQQKPGKAPKRLIYATSSLDPGVPSRFSGSRSGTDFTLTISSLQPEDFATYYCLQYASSPYTFGQGTKVEIKR
# notes: Humanized, human IgG4 / kappa
# B2: hz84C4-1.2 (antibody, human IgG4 S228P, kappa, V domains shown)
# VH: QVQLVQSGAEVKKPGASVKVSCKASGYFFTSYWMNWVRQAPGQGLEWMGYIHPYDSETRYAQKFQGRVTMTVDKSTSTVYMELSSLRSEDTAVYYCASSTTAFAYWGQGTLVTVSS
# VL: DIQMTQSPSSLSASVGDRVTITCRASQDIGNALNWYQQKPGKAPKRLIYATSSLDPGVPSRFSGSRSGTDFTLTISSLQPEDFATYYCLQYASSPYTFGQGTKVEIKR
# notes: Humanized, human IgG4 / kappa
# B3: hz84C4-1.3 (antibody, human IgG4 S228P, kappa, V domains shown)
# VH: QVQLVQSGAEVKKPGASVKVSCKASGYFFTSYWMNWVRQAPGQGLEWMGMIYPYDSETRYAQKFQGRVTMTVDKSTSTVYMELSSLRSEDTAVYYCASSTTAFAYWGQGTLVTVSS
# VL: DIQMTQSPSSLSASVGDRVTITCRASQDIGNALNWYQQKPGKAPKRLIYATSSLDPGVPSRFSGSRSGTDFTLTISSLQPEDFATYYCLQYASSPYTFGQGTKVEIKR
# notes: Humanized, human IgG4 / kappa
# B4: hz84C4-1.4 (antibody, human IgG4 S228P, kappa, V domains shown)
# VH: QVQLVQSGAEVKKPGASVKVSCKASGYYFTSYWMNWVRQAPGQGLEWMGMIHPYDSETRLAQKFKGRVTMTVDKSTSTVYMELSSLRSEDTAVYYCASSTTAFAYWGQGTLVTVSS
# VL: DIQMTQSPSSLSASVGDRVTITCRASQDIGNALNWYQQKPGKAPKRLIYATSSLDPGVPSRFSGSRSGTDFTLTISSLQPEDFATYYCLQYASSPYTFGQGTKVEIKR
# notes: Humanized, human IgG4 / kappa
# B5: hz84C4-1.5 (antibody, human IgG4 S228P, kappa, V domains shown)
# VH: QVQLVQSGAEVKKPGASVKVSCKVSGYFFTSYWMNWVNQAPGQGLEWMGMIHPYDSETRLAQKFKGRVTMTVDKSTSTVYMELSSLRSEDTAVYYCASSTTAFAYWGQGTLVTVSS
# VL: DIQMTQSPSSLSASVGDRVTITCRASQDIGNALNWYQQKPGKAPKRLIYATSSLDPGVPSRFSGSRSGTDFTLTISSLQPEDFATYYCLQYASSPYTFGQGTKVEIKR
# notes: Humanized, human IgG4 / kappa
# B6: hz84C4-2.1 (antibody, human IgG4 S228P, kappa, V domains shown)
# VH: QVQLVQSGAEVKKPGASVKVSCKASGYFFTSYWMNWVRQAPGQGLEWMGMIHPYDSETRYAQKFQGRVTMTVDKSTSTVYMELSSLRSEDTAVYYCASSTTAFAYWGQGTLVTVSS
# VL: DIQMTQSPSSLSASVGDRVTITCRASQDIGNALNWLQQKPGKAPKRLIYATSSLDPGVPSRFSGSRSGTDYTLTISSLQPEDFATYYCLQYASSPYTFGQGTKVEIKR
# notes: Humanized, human IgG4 / kappa
# B7: hz84C4-2.2 (antibody, human IgG4 S228P, kappa, V domains shown)
# VH: QVQLVQSGAEVKKPGASVKVSCKASGYFFTSYWMNWVRQAPGQGLEWMGYIHPYDSETRYAQKFQGRVTMTVDKSTSTVYMELSSLRSEDTAVYYCASSTTAFAYWGQGTLVTVSS
# VL: DIQMTQSPSSLSASVGDRVTITCRASQDIGNALNWLQQKPGKAPKRLIYATSSLDPGVPSRFSGSRSGTDYTLTISSLQPEDFATYYCLQYASSPYTFGQGTKVEIKR
# notes: Humanized, human IgG4 / kappa
# B8: hz84C4-2.3 (antibody, human IgG4 S228P, kappa, V domains shown)
# VH: QVQLVQSGAEVKKPGASVKVSCKASGYFFTSYWMNWVRQAPGQGLEWMGMIYPYDSETRYAQKFQGRVTMTVDKSTSTVYMELSSLRSEDTAVYYCASSTTAFAYWGQGTLVTVSS
# VL: DIQMTQSPSSLSASVGDRVTITCRASQDIGNALNWLQQKPGKAPKRLIYATSSLDPGVPSRFSGSRSGTDYTLTISSLQPEDFATYYCLQYASSPYTFGQGTKVEIKR
# notes: Humanized, human IgG4 / kappa
# B9: hz84C4-2.4 (antibody, human IgG4 S228P, kappa, V domains shown)
# VH: QVQLVQSGAEVKKPGASVKVSCKASGYYFTSYWMNWVRQAPGQGLEWMGMIHPYDSETRLAQKFKGRVTMTVDKSTSTVYMELSSLRSEDTAVYYCASSTTAFAYWGQGTLVTVSS
# VL: DIQMTQSPSSLSASVGDRVTITCRASQDIGNALNWLQQKPGKAPKRLIYATSSLDPGVPSRFSGSRSGTDYTLTISSLQPEDFATYYCLQYASSPYTFGQGTKVEIKR
# notes: Humanized, human IgG4 / kappa
# B10: hz84C4-2.5 (antibody, human IgG4 S228P, kappa, V domains shown)
# VH: QVQLVQSGAEVKKPGASVKVSCKVSGYFFTSYWMNWVNQAPGQGLEWMGMIHPYDSETRLAQKFKGRVTMTVDKSTSTVYMELSSLRSEDTAVYYCASSTTAFAYWGQGTLVTVSS
# VL: DIQMTQSPSSLSASVGDRVTITCRASQDIGNALNWLQQKPGKAPKRLIYATSSLDPGVPSRFSGSRSGTDYTLTISSLQPEDFATYYCLQYASSPYTFGQGTKVEIKR
# notes: Humanized, human IgG4 / kappa
# B11: hz72C1-1.2 (antibody, human IgG4 S228P, kappa)
# heavy: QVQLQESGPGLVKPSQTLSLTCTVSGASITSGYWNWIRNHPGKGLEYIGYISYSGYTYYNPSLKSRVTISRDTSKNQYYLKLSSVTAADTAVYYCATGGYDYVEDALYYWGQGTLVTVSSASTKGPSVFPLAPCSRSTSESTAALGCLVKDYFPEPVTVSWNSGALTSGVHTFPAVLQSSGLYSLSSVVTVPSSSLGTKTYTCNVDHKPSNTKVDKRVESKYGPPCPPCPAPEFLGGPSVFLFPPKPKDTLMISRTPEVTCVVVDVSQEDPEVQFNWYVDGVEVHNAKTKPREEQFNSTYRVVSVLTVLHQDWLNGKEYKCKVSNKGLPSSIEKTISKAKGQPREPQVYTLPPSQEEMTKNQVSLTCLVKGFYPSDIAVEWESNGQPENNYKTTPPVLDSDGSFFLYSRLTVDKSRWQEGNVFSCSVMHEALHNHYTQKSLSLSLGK
# light: DIQMTQSPSSLSASVGDRVTITCRASSNVRYMYWYQQKPGKAPKLWIYLTSNLASGVPSRFSGSGSGTSYTLTISSLQPEDFATYYCQQFTTSPYTFGQGTKLEIKRTVAAPSVFIFPPSDEQLKSGTASVVCLLNNFYPREAKVQWKVDNALQSGNSQESVTEQDSKDSTYSLSSTLTLSKADYEKHKVYACEVTHQGLSSPVTKSFNRGEC
# notes: Humanized, human IgG4 / kappa
# B12: hz72C1-1.1 (antibody, human IgG4 S228P, kappa)
# heavy: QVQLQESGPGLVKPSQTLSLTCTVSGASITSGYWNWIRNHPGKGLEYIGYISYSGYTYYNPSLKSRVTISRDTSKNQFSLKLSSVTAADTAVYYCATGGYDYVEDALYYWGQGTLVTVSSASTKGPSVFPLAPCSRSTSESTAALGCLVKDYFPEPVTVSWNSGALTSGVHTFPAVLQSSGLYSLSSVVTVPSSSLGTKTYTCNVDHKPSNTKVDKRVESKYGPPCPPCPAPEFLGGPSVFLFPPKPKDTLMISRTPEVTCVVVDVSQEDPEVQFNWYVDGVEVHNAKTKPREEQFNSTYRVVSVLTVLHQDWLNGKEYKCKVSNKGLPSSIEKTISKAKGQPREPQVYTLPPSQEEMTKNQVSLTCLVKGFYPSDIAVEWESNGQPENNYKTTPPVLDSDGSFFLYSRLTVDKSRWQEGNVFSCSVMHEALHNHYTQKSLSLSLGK
# light: DIQMTQSPSSLSASVGDRVTITCRASSNVRYMYWYQQKPGKAPKLWIYLTSNLASGVPSRFSGSGSGTSYTLTISSLQPEDFATYYCQQFTTSPYTFGQGTKLEIKRTVAAPSVFIFPPSDEQLKSGTASVVCLLNNFYPREAKVQWKVDNALQSGNSQESVTEQDSKDSTYSLSSTLTLSKADYEKHKVYACEVTHQGLSSPVTKSFNRGEC
# notes: Humanized, human IgG4 / kappa; also called humanized 72C1 antibody 1.1
# Target: T1, cynomolgus IL-36R overexpressed on …
# Test: FACS on 293T-CynoIL36R-NFκB cells, ratio of MFI to background MFI
# Experimental: After the cells was washed with PBS, the cells were resuspended with 100 μL of PBS and then the fluorescence signal was detected using a flow cytometer (BD, Accuri C6). […] The ratio was the ratio of mean fluorescence intensity (MFI) of the experimental group/the background MFI, and the resulting data were analyzed using GraphPad Prism.
# Affinity, binding and blocking assays for humanized antibodies hz72C1-1.1, hz72C1-1.2, hz72C1-1.3, hz72C1-2.1, hz72C1-2.2 and hz72C1-2.3 as well as hz84C4-1.1, hz84C4-1.2, hz84C4-1.3, hz84C4-1.4, hz84C4-1.5, hz84C4-2.1, hz84C4-2.2, hz84C4-2.3, hz84C4-2.4 and hz84C4-2.5 were performed according to the methods of Example 4, Example 5. Example 6, Example 7 and Example 8.
row,Binder,EC50
1,B1,18 nM
2,B2,37.3 nM
3,B3,9.22 nM
4,B4,24.4 nM
5,B5,10.5 nM
6,B6,5.75 nM
7,B7,17.1 nM
8,B8,176 nM
9,B9,48.2 nM
10,B10,11.9 nM

# Target: T2, Human IL-1Rrp2/IL-1R6 protein, His Tag …
# Test: ELISA, plate coated with human IL-1Rrp2/IL-1R6 His Tag, HRP-protein A/G, OD450
# Experimental: (§1) The binding activity of anti-IL-36R antibodies to IL-36R was analyzed by ELISA using human IL-1Rrp2/IL-1R6 protein, His Tag (ACROBiosystems, IL2-H52H6) and CynoIL36R-ECD mFc (for detection of chimeric and humanized antibodies), and hIL36R-ECD hFc and CynoIL36R-ECD hFc protein (for detection of hybridoma antibodies) as antigens. A 96-well plate (Costar, 9018) was coated with 2 μg/mL antigen at 100 μL/well and incubated overnight at 4° C. After the 96-well plate was washed with a washing buffer (PBS containing 0.05% v/v Tween 20), a blocking buffer (PBS containing 2% bovine serum albumin) was added for blocking at 37° C. for 2 h. After the 96-well plate was washed with the washing buffer, 100 μL of the gradient diluted anti-IL-36R antibody of the present disclosure or the reference antibody BI655130 (the initial concentration of the antibody was 66 nM, 4-fold gradient dilution) was added to each well, and the plate was incubated at room temperature for 1 h. After the 96-well plate was washed with the washing buffer, 100 μL of horseradish peroxidase-conjugated recombinant protein A/G (TheroScientific, 32490) was added to each well, and the plate was incubated at room temperature for 1 h. After the 96-well plate was washed with the washing buffer, 100 μL of a TMB solution (Thermo, 00-4201-56) was added to each well, and the plate was incubated at room temperature for 2 min. Finally, 100 μL of a stop solution (2 N H₂SO₄) was added to each well to stop the reaction. Absorbance was read at 450 nm using a microplate reader (PE, Envision), the resulting data was analyzed using GraphPad Prism, and EC₅₀ was calculated. Binding EC₅₀ of the chimeric anti-IL-36R antibodies to hIL-36R in an ELISA assay is shown in FIG. 1. and binding EC₅₀ of the chimeric anti-IL-36R antibodies to CynoIL-36R in an ELISA assay is shown in FIG. 2. The binding of BI655130 is shown as a control, and the binding of IgG4 is shown as a negative control.
row,Binder,EC50
1,B11,5.02 nM
2,B12,2.94 nM

# Target: T3, CynoIL36R-ECD mFc recombinant protein
# Test: ELISA, plate coated with CynoIL36R-ECD mFc, HRP-protein A/G, OD450
# Experimental: as §1
row,Binder,EC50
1,B11,4.26 nM
2,B12,2.73 nM
